Here are results for seven substances from US20160312197.

Holding throughout (test): cell_activity
For data set [1], the target named is CCR5 ZFN SBS 8266, wild-type ZC linker (FokI) (Artificial Sequence) (UniProt P14870).
Data set [2] relates to CCR5 ZFN, L6a linker (FokI) (Artificial Sequence).
In data set [3] the test system is CCR5 ZFN, L7a linker (FokI) (Artificial Sequence).
Data set [4] deals with mROSA-targeted ZFN pair, Wt/L7a linkers (Artificial Sequence). The following applies: Neuro2A, mock 0.4.
Data set [5] concerns mROSA-targeted ZFN pair, Wt/Wt linkers (Artificial Sequence). The note with it: Neuro2A, mock 0.4.
The subject of data set [6] is rat IgM-targeted ZFN pair, ZC linkers (Artificial Sequence). The note with it: rat C6 cells.
For data set [7], the system named is rat IgM-targeted ZFN pair, one L7a linker (Artificial Sequence). The note with it: rat C6 cells.
[8] abbreviates: no cleavage at this spacing, binding not measured.

CCR5 ZFN, L6a linker (FokI) (Artificial Sequence), sequence (chain, as listed by the source): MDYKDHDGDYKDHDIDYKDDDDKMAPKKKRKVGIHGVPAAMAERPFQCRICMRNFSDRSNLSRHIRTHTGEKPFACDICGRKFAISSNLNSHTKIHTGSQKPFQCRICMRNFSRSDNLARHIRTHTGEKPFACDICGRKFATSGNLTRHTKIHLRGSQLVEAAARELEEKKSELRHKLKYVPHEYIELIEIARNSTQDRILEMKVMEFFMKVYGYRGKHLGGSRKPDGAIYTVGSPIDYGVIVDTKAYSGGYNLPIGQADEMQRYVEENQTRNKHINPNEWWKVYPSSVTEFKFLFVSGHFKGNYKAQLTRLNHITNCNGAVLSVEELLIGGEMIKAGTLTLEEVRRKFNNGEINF
CCR5 ZFN SBS 8266, wild-type ZC linker (FokI) (Artificial Sequence), sequence (P14870 other isoform, or with tags, fused parts or gaps): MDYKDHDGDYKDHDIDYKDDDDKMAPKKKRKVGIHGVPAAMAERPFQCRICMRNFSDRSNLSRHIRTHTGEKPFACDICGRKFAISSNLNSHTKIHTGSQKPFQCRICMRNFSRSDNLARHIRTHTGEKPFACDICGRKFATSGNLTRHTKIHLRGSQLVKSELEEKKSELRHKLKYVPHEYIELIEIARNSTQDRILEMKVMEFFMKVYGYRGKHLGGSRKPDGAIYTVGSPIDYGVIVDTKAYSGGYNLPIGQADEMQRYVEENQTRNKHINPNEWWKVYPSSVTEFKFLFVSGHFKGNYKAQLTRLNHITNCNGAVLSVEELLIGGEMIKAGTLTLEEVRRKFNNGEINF
CCR5 ZFN, L7a linker (FokI) (Artificial Sequence), sequence (chain, as listed by the source): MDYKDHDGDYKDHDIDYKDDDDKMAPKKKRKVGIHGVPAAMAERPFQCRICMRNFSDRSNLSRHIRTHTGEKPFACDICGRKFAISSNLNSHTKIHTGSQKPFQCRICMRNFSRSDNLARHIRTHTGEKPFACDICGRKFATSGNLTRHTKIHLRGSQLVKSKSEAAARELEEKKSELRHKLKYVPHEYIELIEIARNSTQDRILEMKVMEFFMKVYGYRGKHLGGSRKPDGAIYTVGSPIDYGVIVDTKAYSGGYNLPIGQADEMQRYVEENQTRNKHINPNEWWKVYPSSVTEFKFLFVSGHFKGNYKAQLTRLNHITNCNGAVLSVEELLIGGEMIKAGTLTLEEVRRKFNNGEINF

Take CCR5 ZFN sites, 5 bp gap: the activity is 35 % NHEJ in data set [1] (ZFN pair, average of 2); 39.3 % NHEJ in data set [2] (ZFN pair, average of 2); 0 % NHEJ in data set [3] (setting [8]).
As to CCR5 ZFN sites, 4 bp gap, the activity in data set [1] (ZFN pair, average of 2) turned out to be 1.2 % NHEJ; in data set [2] (setting [8]) it was 0 % NHEJ; in data set [3] (setting [8]) it was 0 % NHEJ.
Take CCR5 ZFN sites, 7 bp gap: the activity was determined as 0 % NHEJ in data set [1] (setting [8]); 5.1 % NHEJ in data set [2] (ZFN pair, average of 2); 39.6 % NHEJ in data set [3] (ZFN pair, average of 2).
Consider mROSA target, 6 bp gap, for which the results for the activity in data set [4] and in data set [5] were 7.5 % NHEJ and 22.6 % NHEJ, respectively.
Take rat IgM target, 6 bp gap: the activity in data set [6] came out at 1.93 % NHEJ; in data set [7] it was 2.43 % NHEJ.
With CCR5 ZFN sites, 6 bp gap, the activity in data set [1] (ZFN pair, average of 2) is 11.1 % NHEJ; in data set [2] (ZFN pair, average of 2) it was 25.4 % NHEJ; in data set [3] (ZFN pair, average of 2) it was 31.8 % NHEJ.
For CCR5 ZFN sites, 8 bp gap, the activity worked out at 0 % NHEJ in data set [1] (setting [8]); 0 % NHEJ in data set [2] (setting [8]); 6.1 % NHEJ in data set [3] (ZFN pair, average of 2).
